Results as given in US20250243263A1.
pKd: −log10 of the molar value.

What was measured:
[1] = target: Tau225-240 phospho-peptide (pT231) (human); assay: BLI
[2] = target: Tau217-234 phospho-peptide (pT217/pT220/pT231) (human); assay: BLI
[3] = target: tPeptide 5 (204-222) (human); assay: one point ELISA
[4] = target: Tau204-222 phospho-peptide (pS214) (human); assay: one point ELISA
[5] = target: Tau204-222 phospho-peptide (pT212/pS214) (human); assay: one point ELISA
[6] = target: Tau204-222 phospho-peptide (pT212) (human); assay: one point ELISA
[7] = target: Tau204-222 phospho-peptide (pT212/pT217) (human); assay: one point ELISA
[8] = target: Tau204-222 phospho-peptide (pT212/pS214/pT217) (human); assay: one point ELISA
[9] = target: Tau204-222 phospho-peptide (pS214/pT217) (human); assay: one point ELISA
[10] = target: Tau204-222 phospho-peptide (pT217) (human); assay: one point ELISA
[11] = target: Tau191-214 phospho-peptide (pT205) (human); assay: one point ELISA
Sequence of Tau191-214 phospho-peptide (pT205) (human) (peptide, as listed by the source): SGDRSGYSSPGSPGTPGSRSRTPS

[12] = target: pS199-old (SCBio-4PEG-Peptide, Tau191-214) (human); assay: one point ELISA
[13] = target: Tau191-214 phospho-peptide (pS199/pT205) (human); assay: one point ELISA
[14] = target: Tau191-214 phospho-peptide (pS202/pT205) (human); assay: one point ELISA
[15] = target: Tau191-214 phospho-peptide (pS199/pS202/pT205) (human); assay: one point ELISA
[16] = target: Tau191-214 phospho-peptide (pS199/pS202) (human); assay: one point ELISA
[17] = target: Tau191-214 phospho-peptide (pS202) (human); assay: one point ELISA
[18] = target: Tau191-214 phospho-peptide (pS199) (human); assay: one point ELISA
[19] = target: AT8 peptide (amino acids 195-215 of tau) (human); assay: BLI (Octet), phospho-peptide on streptavidin tips
Sequence of AT8 peptide (amino acids 195-215 of tau) (human) (peptide, as listed by the source): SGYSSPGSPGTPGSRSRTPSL

pKd [1]	pKd [2]	OD (450 nm) [3] [OD450]	OD (450 nm) [4] [OD450]	OD (450 nm) [5] [OD450]	OD (450 nm) [6] [OD450]	OD (450 nm) [7] [OD450]	OD (450 nm) [8] [OD450]	OD (450 nm) [9] [OD450]	OD (450 nm) [10] [OD450]	OD (450 nm) [11] [OD450]	OD (450 nm) [12] [OD450]	OD (450 nm) [13] [OD450]	OD (450 nm) [14] [OD450]	OD (450 nm) [15] [OD450]	OD (450 nm) [16] [OD450]	OD (450 nm) [17] [OD450]	OD (450 nm) [18] [OD450]	pKd [19]	Substance
11.22	11.30																		AT180 (antibody)
		0.281																	IPN002-hIgG1 (antibody)
		2.81	3.14	3.14	3.16	3.16	3.17	3.13	3.13										PT3-hIgG1 (antibody)
										0.065	0.056	0.139	2.94	3.07	2.39	0.058	0.056	9.51	anti-tau antibody AT8 (ThermoFisher, Waltham, MA)
			0.065	0.071	0.069	0.069	0.187	0.067	0.068										anti-tau antibody AT100 (ThermoFisher, Waltham, MA)
		0.141	0.061	0.059	0.06	0.057	0.053	0.059	0.083	0.054	0.06	0.09	0.249	0.245	0.062	0.055	0.058		hIgG1 isotype control (antibody)
